tested on: Escherichia coli TOP10; experiment: shrunken log2 fold change of peptide-encoding DNA abundance (4.5 h post-induction vs induction); higher = less antimicrobial activity (less host growth inhibition); details: time post-induction: 4.5 h; library: site-saturation at positions 5, 18, 19, 20
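Note: peptides expressed intracellularly from a pBAD plasmid library in pooled LB shake-flask culture, induced with 0.3% L-arabinose, DNA abundance read by NGS, three biological replicates, DESeq2 with apeglm shrinkage.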

Sequence	shrunken log2 fold change
RRIRSRPPRLPRPRPRPRCCPRP	-0.00537
RRIRHRPPRLPRPRPRPFFHPRP	-0.454
RRIRNRPPRLPRPRPRPLRRPRP	2.43
RRIRKRPPRLPRPRPRPYSMPRP	-0.39
RRIRDRPPRLPRPRPRPRLMPRP	0.163
RRIRHRPPRLPRPRPRPVNTPRP	-0.18
RRIRQRPPRLPRPRPRPTPKPRP	1.53
RRIRERPPRLPRPRPRPNQNPRP	-0.188
RRIRHRPPRLPRPRPRPEYQPRP	-0.3
RRIRVRPPRLPRPRPRPKCGPRP	0.0731
RRIRTRPPRLPRPRPRPACYPRP	-0.0845
RRIRVRPPRLPRPRPRPYWNPRP	-0.574
RRIRWRPPRLPRPRPRPDCYPRP	0.148
RRIRFRPPRLPRPRPRPNAIPRP	-0.322
RRIRKRPPRLPRPRPRPHKNPRP	0.207
RRIRSRPPRLPRPRPRPMGTPRP	0.194
RRIRCRPPRLPRPRPRPHCWPRP	-0.0254
RRIRTRPPRLPRPRPRPFSNPRP	-0.405
RRIRWRPPRLPRPRPRPDDPPRP	-0.0101
RRIRKRPPRLPRPRPRPQRKPRP	0.71
RRIRSRPPRLPRPRPRPDCYPRP	-0.374
RRIRPRPPRLPRPRPRPAWKPRP	-0.109
RRIRMRPPRLPRPRPRPFWRPRP	0.463
RRIRHRPPRLPRPRPRPNFWPRP	0.257
RRIRFRPPRLPRPRPRPHIFPRP	-0.021

Sequence	shrunken log2 fold change
RRIRNRPPRLPRPRPRPAMIPRP	-0.254
RRIRTRPPRLPRPRPRPMTGPRP	0.17
RRIRWRPPRLPRPRPRPMWHPRP	-0.139
RRIRGRPPRLPRPRPRPTVSPRP	0.731
RRIRLRPPRLPRPRPRPNPHPRP	-0.07
RRIRFRPPRLPRPRPRPQIVPRP	0.0871
RRIRMRPPRLPRPRPRPTAGPRP	0.396
RRIRMRPPRLPRPRPRPKFYPRP	0.0127
RRIRQRPPRLPRPRPRPVPSPRP	-0.0282
RRIRRRPPRLPRPRPRPHWNPRP	-0.159
RRIRPRPPRLPRPRPRPRCVPRP	0.0965
RRIRMRPPRLPRPRPRPVTTPRP	0.107
RRIRWRPPRLPRPRPRPHIQPRP	-0.749
RRIRGRPPRLPRPRPRPNEDPRP	0.468
RRIRGRPPRLPRPRPRPMWHPRP	0.441
RRIRWRPPRLPRPRPRPNKSPRP	0.0866
RRIRFRPPRLPRPRPRPFHRPRP	-0.0134
RRIRTRPPRLPRPRPRPYYIPRP	-0.845
RRIRMRPPRLPRPRPRPDEGPRP	-0.0141
RRIRARPPRLPRPRPRPRNGPRP	0.566
RRIRRRPPRLPRPRPRPVKWPRP	0.111
RRIRSRPPRLPRPRPRPNHRPRP	-0.426
RRIRDRPPRLPRPRPRPVMLPRP	-0.0376
RRIRARPPRLPRPRPRPPDMPRP	0.778
RRIRKRPPRLPRPRPRPRDTPRP	0.258

Sequence	shrunken log2 fold change
RRIRARPPRLPRPRPRPSRWPRP	0.388
RRIRHRPPRLPRPRPRPITGPRP	0.015
RRIRVRPPRLPRPRPRPYNEPRP	-0.429
RRIRYRPPRLPRPRPRPDVTPRP	-0.00733
RRIRYRPPRLPRPRPRPILHPRP	-0.141
RRIRYRPPRLPRPRPRPCLQPRP	-0.00663
RRIRWRPPRLPRPRPRPCDYPRP	-0.0182
RRIRIRPPRLPRPRPRPGTQPRP	-0.0235
RRIRPRPPRLPRPRPRPQKFPRP	-0.178
RRIRYRPPRLPRPRPRPFRMPRP	-0.0929
RRIRARPPRLPRPRPRPNTWPRP	0.0711
RRIRNRPPRLPRPRPRPCKCPRP	0.00489
RRIRRRPPRLPRPRPRPLRLPRP	0.59
RRIRVRPPRLPRPRPRPFRWPRP	-0.0443
RRIRMRPPRLPRPRPRPLWYPRP	0.205
RRIRMRPPRLPRPRPRPCWKPRP	-0.0216
RRIRCRPPRLPRPRPRPETMPRP	-0.0663
RRIRIRPPRLPRPRPRPCDGPRP	-0.00133
RRIRARPPRLPRPRPRPPAQPRP	1.02
RRIRFRPPRLPRPRPRPSDCPRP	-0.476
RRIRHRPPRLPRPRPRPMLMPRP	-0.121
RRIRTRPPRLPRPRPRPWSIPRP	-0.325
RRIRMRPPRLPRPRPRPTEFPRP	0.0756
RRIRGRPPRLPRPRPRPHWMPRP	0.0496
RRIRSRPPRLPRPRPRPFNNPRP	-0.458
